Experimental data reported in patent US20240270846A1 (published 2024).
Residue numbers refer to the chain shown, from its start. In names and notes the source's numbering stands.

B1: GLS3000 N30R one-arm antibody (H chain CE115HA000) (antibody, human IgG1, kappa, L234A L235A, N297A, name in Kabat numbering)
heavy: QVQLVESGGGVVQPGRSLRLSCAASGFTFSNAWMHWVRQAPGKGLEWVAQIKAKSNNYATYYAESVKGRFTISRDDSKNSLYLQMNSLKTEDTAVYYCRYVHYGAYYGVDAWGQGTTVTVSSASTKGPSVFPLAPSSKSTSGGTAALGCLVKDYFPEPVTVSWNSGALTSGVHTFPAVLQSSGLYSLSSVVTVPSSSLGTQTYICNVNHKPSNTKVDKKVEPKSCDKTHTCPPCPAPEAAGGPSVFLFPPKPKDTLMISRTPEVTCVVVDVSHEDPEVKFNWYVDGVEVHNAKTKPREEQYASTYRVVSVLTVLHQDWLNGKEYKCKVSNKALPAPIEKTISKAKGQPREPQVYTLPPSRCELTKNQVSLSCAVKGFYPSDIAVEWESNGQPENNYKTTPPVLDSDGSFFLVSKLTVDKSRWQQGNVFSCSVMHEALHNHYTQKSLSLSPDYKDDDDK
chain: EPKSSDKTHTCPPCPAPELLGGPSVFLFPPKPKDTLMISRTPEVTCVVVDVSHEDPEVKFNWYVDGVEVHNAKTKPREEQYNSTYRVVSVLTVLHQDWLNGKEYKCKVSNKALPAPIEKTISKAKGQPREPQVCTLPPSRDELTKNQVSLWCLVKGFYPSDIAVEWESNGQPENNYKTTPPVLDSDGSFFLYSKLTVDKSRWQQGNVFSCSVMHEALHNRYTQKSLSLSP
light: DIVMTQSPLSLPVTPGEPASISCRSSQSLVHSNRRTYLHWYQQKPGQAPRLLIYKVSNRFSGVPDRFSGSGSGTDFTLKISRVEAEDVGVYYCGQGTQVPYTFGQGTKLEIKRTVAAPSVFIFPPSDEQLKSGTASVVCLLNNFYPREAKVQWKVDNALQSGNSQESVTEQDSKDSTYSLSSTLTLSKADYEKHKVYACEVTHQGLSSPVTKSFNRGEC
notes: one-arm antibody
B2: GLS3000 N30W one-arm antibody (H chain CE115HA000) (antibody, human IgG1, kappa, L234A L235A, N297A, name in Kabat numbering)
heavy: B1 heavy
chain: B1 chain
light: B1 light with R35W
notes: one-arm antibody
B3: GLS3000 N30S one-arm antibody (H chain CE115HA000) (antibody, human IgG1, kappa, L234A L235A, N297A, name in Kabat numbering)
heavy: B1 heavy
chain: B1 chain
light: B1 light with R35S
notes: one-arm antibody
B4: GLS3000 Q27L one-arm antibody (H chain CE115HA000) (antibody, human IgG1, kappa, L234A L235A, N297A, name in Kabat numbering)
heavy: B1 heavy
chain: B1 chain
light: B1 light with Q27L, R35N
notes: one-arm antibody
B5: GLS3000 R24G one-arm antibody (H chain CE115HA000) (antibody, human IgG1, kappa, L234A L235A, N297A, name in Kabat numbering)
heavy: B1 heavy
chain: B1 chain
light: B1 light with R24G, R35N
notes: one-arm antibody
B6: GLS3000 Q27R one-arm antibody (H chain CE115HA000) (antibody, human IgG1, kappa, L234A L235A, N297A, name in Kabat numbering)
heavy: B1 heavy
chain: B1 chain
light: B1 light with Q27R, R35N
notes: one-arm antibody
B7: GLS3000 N53D one-arm antibody (H chain CE115HA000) (antibody, human IgG1, kappa, L234A L235A, N297A, name in Kabat numbering)
heavy: B1 heavy
chain: B1 chain
light: B1 light with R35N, N58D
notes: one-arm antibody
B8: GLS3000 R24D one-arm antibody (H chain CE115HA000) (antibody, human IgG1, kappa, L234A L235A, N297A, name in Kabat numbering)
heavy: B1 heavy
chain: B1 chain
light: B1 light with R24D, R35N
notes: one-arm antibody
B9: GLS3000 R24E one-arm antibody (H chain CE115HA000) (antibody, human IgG1, kappa, L234A L235A, N297A, name in Kabat numbering)
heavy: B1 heavy
chain: B1 chain
light: B1 light with R24E, R35N
notes: one-arm antibody
B10: GLS3000 R24S one-arm antibody (H chain CE115HA000) (antibody, human IgG1, kappa, L234A L235A, N297A, name in Kabat numbering)
heavy: B1 heavy
chain: B1 chain
light: B1 light with R24S, R35N
notes: one-arm antibody
B11: GLS3000 N30Y one-arm antibody (H chain CE115HA000) (antibody, human IgG1, kappa, L234A L235A, N297A, name in Kabat numbering)
heavy: B1 heavy
chain: B1 chain
light: B1 light with R35Y
notes: one-arm antibody
B12: GLS3000 N53A one-arm antibody (H chain CE115HA000) (antibody, human IgG1, kappa, L234A L235A, N297A, name in Kabat numbering)
heavy: B1 heavy
chain: B1 chain
light: B1 light with R35N, N58A
notes: one-arm antibody
B13: GLS3000 Q27D one-arm antibody (H chain CE115HA000) (antibody, human IgG1, kappa, L234A L235A, N297A, name in Kabat numbering)
heavy: B1 heavy
chain: B1 chain
light: B1 light with Q27D, R35N
notes: one-arm antibody
B14: GLS3000 R24T one-arm antibody (H chain CE115HA000) (antibody, human IgG1, kappa, L234A L235A, N297A, name in Kabat numbering)
heavy: B1 heavy
chain: B1 chain
light: B1 light with R24T, R35N
notes: one-arm antibody
B15: GLS3000 N30T one-arm antibody (H chain CE115HA000) (antibody, human IgG1, kappa, L234A L235A, N297A, name in Kabat numbering)
heavy: B1 heavy
chain: B1 chain
light: B1 light with R35T
notes: one-arm antibody
B16: GLS3000 R24Y one-arm antibody (H chain CE115HA000) (antibody, human IgG1, kappa, L234A L235A, N297A, name in Kabat numbering)
heavy: B1 heavy
chain: B1 chain
light: B1 light with R24Y, R35N
notes: one-arm antibody
B17: GLS3000 Q27E one-arm antibody (H chain CE115HA000) (antibody, human IgG1, kappa, L234A L235A, N297A, name in Kabat numbering)
heavy: B1 heavy
chain: B1 chain
light: B1 light with Q27E, R35N
notes: one-arm antibody
B18: GLS3000 N30V one-arm antibody (H chain CE115HA000) (antibody, human IgG1, kappa, L234A L235A, N297A, name in Kabat numbering)
heavy: B1 heavy
chain: B1 chain
light: B1 light with R35V
notes: one-arm antibody
B19: GLS3000 R24P one-arm antibody (H chain CE115HA000) (antibody, human IgG1, kappa, L234A L235A, N297A, name in Kabat numbering)
heavy: B1 heavy
chain: B1 chain
light: B1 light with R24P, R35N
notes: one-arm antibody
B20: GLS3000 Q27P one-arm antibody (H chain CE115HA000) (antibody, human IgG1, kappa, L234A L235A, N297A, name in Kabat numbering)
heavy: B1 heavy
chain: B1 chain
light: B1 light with Q27P, R35N
notes: one-arm antibody
B21: GLS3000 R24A one-arm antibody (H chain CE115HA000) (antibody, human IgG1, kappa, L234A L235A, N297A, name in Kabat numbering)
heavy: B1 heavy
chain: B1 chain
light: B1 light with R24A, R35N
notes: one-arm antibody
B22: GLS3000 R24Q one-arm antibody (H chain CE115HA000) (antibody, human IgG1, kappa, L234A L235A, N297A, name in Kabat numbering)
heavy: B1 heavy
chain: B1 chain
light: B1 light with R24Q, R35N
notes: one-arm antibody

biological target: T1, CD3 epsilon homodimer protein (UniProt P07766 23-126); assay: SPR, CD3e homodimer on chip;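 further: surface plasmon resonance at 25 degrees C, antibodies flowed as analyte over CD3 epsilon homodimer amine-coupled to a CM4 chip, running buffer HBS-EP+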
T1 construct: also called CD3 (CD3 epsilon)
T1 sequence (P07766 23-126): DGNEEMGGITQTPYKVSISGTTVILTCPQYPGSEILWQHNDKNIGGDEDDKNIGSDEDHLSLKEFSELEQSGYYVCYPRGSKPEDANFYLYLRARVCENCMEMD
Method: An appropriate amount of CD3 epsilon homodimer protein was immobilized onto Sensor chip CM4 (GE Healthcare Japan Corp.) by the amine coupling method. Then, the antibody having an appropriate concentration was injected thereto as an analyte and allowed to interact with the CD3 epsilon homodimer protein on the sensor chip. Then, the sensor chip was regenerated by the injection of 10 mmol/L glycine-HCl (pH 1.5). The assay was conducted at 25 degrees C., and HBS-EP+(GE Healthcare Japan Corp.) was used as a running buffer. […] Each parameter was calculated using Biacore T200 Evaluation Software (GE Healthcare Japan Corp.).
Specifically, when the amount of the GLS3000-containing antibody bound was defined as X and the amount of the L chain one-amino acid altered form bound was defined as Y, a value of Z (ratio of amounts bound)=Y/X was used.

First: B1
Second: B2
The “ratio of amounts bound (altered form / unaltered GLS3000 antibody)” value of the first is higher: 1.86 for the first, 0.99 for the second.

Compared with B3, B4 is higher in “ratio of amounts bound (altered form / unaltered GLS3000 antibody)” value: 0.29 for the first, 0.92 for the second.

First: B5
Second: B6
The “ratio of amounts bound (altered form / unaltered GLS3000 antibody)” value of the first is lower: 0.89 for the first, 1.19 for the second.

First: B7
Second: B8
The “ratio of amounts bound (altered form / unaltered GLS3000 antibody)” value of the first is lower: 0.34 for the first, 0.75 for the second.

Compared with B9, B10 is higher in “ratio of amounts bound (altered form / unaltered GLS3000 antibody)” value: 0.83 for the first, 0.89 for the second.

Going from B11 to B12, the “ratio of amounts bound (altered form / unaltered GLS3000 antibody)” value falls from 1.04 to 0.61.

Compared with B13, B14 is higher in “ratio of amounts bound (altered form / unaltered GLS3000 antibody)” value: 0.85 for the first, 0.88 for the second.

Compared with B15, B16 is higher in “ratio of amounts bound (altered form / unaltered GLS3000 antibody)” value: 0.29 for the first, 0.87 for the second.

Going from B17 to B18, the “ratio of amounts bound (altered form / unaltered GLS3000 antibody)” value falls from 0.88 to 0.61.

First: B19
Second: B20
The “ratio of amounts bound (altered form / unaltered GLS3000 antibody)” value of the first is higher: 0.7 for the first, 0.29 for the second.

Going from B21 to B22, the “ratio of amounts bound (altered form / unaltered GLS3000 antibody)” value rises from 0.86 to 0.9.
